Assay results reported in article PMC5737834.
Several values for one entry are separate records, joined by “and”; a condition that tells them apart may be missing. Equal entries are not always repeated.

Target: Recombinant human SP-A1 (SP-A1^hyp) (human) (UniProt Q8IWL2)
Test: native gel or EMSA + AUC

stoichiometry N: 3 and 6
Substance: Recombinant human SP-A1 (SP-A1^hyp) (from UniProt Q8IWL2 21-248) (natural protein)
